Reference: US20050058639A1 (AstraZeneca / MedImmune, published 2005)
Positions count from the first letter of the chain named.

T1: recombinant human MCP-2 (human, UniProt P80075 24-99)
T1 construct: also called rhMCP-2
T1 sequence (looked up): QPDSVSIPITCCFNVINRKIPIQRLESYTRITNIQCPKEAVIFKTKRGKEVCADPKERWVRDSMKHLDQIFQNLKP

T2: human GRO/MGSA (human, UniProt P09341 35-107)
T2 construct: also called hGRO/MGSA; GRO-alpha
T2 sequence (looked up): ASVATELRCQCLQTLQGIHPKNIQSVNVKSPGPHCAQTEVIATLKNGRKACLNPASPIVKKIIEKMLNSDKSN

T3: human MIP-1-alpha (human, UniProt P10147 24-92, limits assumed)
T3 construct: also called hMIP-1-alpha
T3 sequence (looked up): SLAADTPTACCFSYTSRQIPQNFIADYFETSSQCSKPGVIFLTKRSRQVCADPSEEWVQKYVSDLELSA

T4: human RANTES (human, UniProt P13501 24-91)
T4 construct: also called hRANTES
T4 sequence (looked up): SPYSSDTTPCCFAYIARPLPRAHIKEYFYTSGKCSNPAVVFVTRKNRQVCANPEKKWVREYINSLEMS

B1: anti-MCP-1 mAb 1.4.1 (antibody, V domains shown)
VH: QSGPGLVKPSQTLSLTCAISGDSVSSNSAAWNWIRQSPSRGLEWLGRTYYRSKWYSDHAVSVRSRITIYPDTSKNQFSLQLNSVTPEDTAVYYCARDRISGTYVGMDVWGQGTTVTVSS
VL: DIGMTQTPLSLSVTPGQPASISCKSSQSLLYSDGKTYLYWYLQKPGQPPQHLIYEVSNRFSGVPDRFSGSGSGTDFTLKISRVEADDVGVYYCMQTIHLPLTFGGGTKVEIQR
B2: anti-MCP-1 mAb 5.1 (antibody, V domains shown)
VH: EQSGGGVVQPGRSLRLSCAASGFTFSSYGMHWVRQAPGKGLEWVAVIWYDGNNKYYADSVKGRFTISRDTSKNTLYLQMNSLRAEDTAVYYCARDSSSYYYYGMDVWGQGTTVTVSS
VL: NFMLTQPHSVSESPGKTVTISCTRSSGSIASNYVQWFQQRPGSSPTTVIYEDDQRPSGVPDRFCGSIDSSSNSASLTISGLRTEDEADYYCQSYDSSNHVVFGGGTKLTVLG
B3: anti-MCP-1 mAb 1.7.1 (antibody, human IgG2, kappa, V domains shown)
VH: QVQLVQSGAEVKKPGASVKVSCKVSGYTLTELSMHWVRQAPGKGLEWMGGFDPEDGETIYAQKFQGRVSMTEDTSTDTAYMELSSLRSEDTAVYFCATNEFWSGYFDYWGQGTLVTVSS
VL: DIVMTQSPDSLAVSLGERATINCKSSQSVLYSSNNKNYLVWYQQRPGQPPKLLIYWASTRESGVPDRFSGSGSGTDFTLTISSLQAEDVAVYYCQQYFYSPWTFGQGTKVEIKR
notes: also called 1.7.2
B4: anti-MCP-1 mAb 2.3.1 (antibody, V domains shown)
VH: B3 VH with G56D, S69T, D77H, F95Y, N99H, E100D, G104A, D107Y
VL: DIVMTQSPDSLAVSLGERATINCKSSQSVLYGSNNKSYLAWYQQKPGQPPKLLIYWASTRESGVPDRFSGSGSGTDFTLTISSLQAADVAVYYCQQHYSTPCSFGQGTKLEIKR
B5: anti-MCP-1 mAb 3.7.1 (antibody, human IgG2, kappa, V domains shown)
VH: B3 VH with A40T, G66D, S69T, F95Y, E100D, S103T, F106Y
VL: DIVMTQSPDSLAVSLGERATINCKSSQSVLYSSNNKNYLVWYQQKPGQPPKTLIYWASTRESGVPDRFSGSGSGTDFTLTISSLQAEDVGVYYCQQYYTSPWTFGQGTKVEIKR
notes: also called 3.7.2

biological target: T5, human monocyte chemo-attractant protein-1 (MCP-1) (human, UniProt P13500 24-99); assay: ELISA, coated antigen
T5 construct: 76-residue recombinant protein from E. coli, bought (PeproTech); also called hMCP-1(MCAF); human MCP-1
T5 sequence (P13500 24-99): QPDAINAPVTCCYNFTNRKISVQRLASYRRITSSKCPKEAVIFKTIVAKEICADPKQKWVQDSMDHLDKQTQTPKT
In short: (§1)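 Plates coated overnight at 4° C with MCP-1, MCP-2, MCP-3, MCP-4, RANTES, GRO-alpha, MIP-1 alpha, eotaxin, rat MCP-1 or mouse JE (2 μg/ml, carbonate buffer pH 9.6), blocked with BSA. Hybridoma supernatants bound 2 hours at room temperature; TMB colour developed about 10 minutes.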

Going from B1 to B2, the “ELISA OD” value falls from 0.738 OD450 to 0.521 OD450.

biological target: T6, recombinant mouse JE/MCP-1 (mouse, UniProt P10148 24-148); assay: ELISA, coated antigen
T6 construct: also called rmJE/MCP-1
T6 sequence (P10148 24-148 limits assumed): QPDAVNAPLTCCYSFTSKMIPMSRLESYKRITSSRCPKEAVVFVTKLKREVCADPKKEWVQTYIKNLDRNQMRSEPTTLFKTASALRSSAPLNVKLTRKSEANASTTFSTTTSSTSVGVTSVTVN
In short: as §1

First: B1
Second: B2
The “ELISA OD” value of the first is lower: 0.042 OD450 for the first, 0.044 OD450 for the second.

First: B3
Second: B4
The “ELISA OD” value of the first is lower: 0.041 OD450 for the first, 0.054 OD450 for the second.

In the case of B5, the “ELISA OD” value is reported as 0.046 OD450.

biological target: rat MCP-1 (rat, UniProt P14844 24-148); assay: ELISA, coated antigen
Sequence (P14844 24-148 limits assumed): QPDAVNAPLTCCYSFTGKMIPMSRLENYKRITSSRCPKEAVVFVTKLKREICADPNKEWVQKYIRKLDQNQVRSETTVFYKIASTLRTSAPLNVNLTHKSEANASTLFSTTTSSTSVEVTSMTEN
In short: as §1

Compared with B1, B2 is higher in “ELISA OD” value: 0.05 OD450 for the first, 0.054 OD450 for the second.

First: B3
Second: B4
The “ELISA OD” value of the first is lower: 0.042 OD450 for the first, 0.058 OD450 for the second.

With B5 the “ELISA OD” value was 0.048 OD450.

biological target: T1, recombinant human MCP-2; assay: ELISA, coated antigen
In short: as §1

First: B1
Second: B2
The “ELISA OD” value of the first is lower: 0.046 OD450 for the first, 0.051 OD450 for the second.

Going from B3 to B4, the “ELISA OD” value rises from 0.044 OD450 to 0.052 OD450.

With B5 the “ELISA OD” value was 0.043 OD450.

biological target: T7, recombinant human MCP-3 (human, UniProt P80098 24-99); assay: ELISA, coated antigen
T7 construct: also called rhMCP-3
T7 sequence (P80098 24-99 limits assumed): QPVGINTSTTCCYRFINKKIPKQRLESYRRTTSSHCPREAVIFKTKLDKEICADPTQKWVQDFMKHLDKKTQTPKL
In short: as §1

First: B1
Second: B2
The “ELISA OD” value of the first is lower: 0.049 OD450 for the first, 0.05 OD450 for the second.

Compared with B3, B4 is higher in “ELISA OD” value: 0.053 OD450 for the first, 0.059 OD450 for the second.

B5 was tested, and the “ELISA OD” value was 0.048 OD450.

biological target: T8, recombinant human MCP-4 (human, UniProt Q99616 24-98, limits assumed); assay: ELISA, coated antigen
T8 construct: also called rhMCP-4
T8 sequence (Q99616 24-98 limits assumed): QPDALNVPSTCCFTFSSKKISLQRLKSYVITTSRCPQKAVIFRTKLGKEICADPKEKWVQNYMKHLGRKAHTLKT
In short: as §1

First: B1
Second: B2
The “ELISA OD” value of the first is higher: 0.045 OD450 for the first, 0.043 OD450 for the second.

First: B3
Second: B4
The “ELISA OD” value of the first is lower: 0.041 OD450 for the first, 0.064 OD450 for the second.

In the case of B5, the “ELISA OD” value is reported as 0.048 OD450.

biological target: T2, human GRO/MGSA; assay: ELISA, coated antigen
In short: as §1

B1 and B2 are the same in “ELISA OD” value: 0.044 OD450 for the first, 0.044 OD450 for the second.

Going from B3 to B4, the “ELISA OD” value rises from 0.041 OD450 to 0.062 OD450.

B5 was tested, and the “ELISA OD” value was 0.045 OD450.

biological target: T3, human MIP-1-alpha; assay: ELISA, coated antigen
In short: as §1

First: B1
Second: B2
The “ELISA OD” value of the first is lower: 0.041 OD450 for the first, 0.043 OD450 for the second.

Going from B3 to B4, the “ELISA OD” value rises from 0.04 OD450 to 0.067 OD450.

B5 was tested, and the “ELISA OD” value was 0.049 OD450.

biological target: T4, human RANTES; assay: ELISA, coated antigen
In short: as §1

First: B1
Second: B2
The “ELISA OD” value of the first is higher: 0.046 OD450 for the first, 0.043 OD450 for the second.

Compared with B3, B4 is higher in “ELISA OD” value: 0.039 OD450 for the first, 0.055 OD450 for the second.

In the case of B5, the “ELISA OD” value is reported as 0.067 OD450.

biological target: T9, human eotaxin (human, UniProt P51671 24-97); assay: ELISA, coated antigen
T9 construct: also called hEotaxin
T9 sequence (P51671 24-97 limits assumed): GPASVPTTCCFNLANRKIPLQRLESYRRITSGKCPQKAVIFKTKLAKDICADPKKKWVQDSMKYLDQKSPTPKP
In short: as §1

Going from B1 to B2, the “ELISA OD” value falls from 0.043 OD450 to 0.042 OD450.

First: B3
Second: B4
The “ELISA OD” value of the first is lower: 0.04 OD450 for the first, 0.045 OD450 for the second.

For B5, the “ELISA OD” value was 0.043 OD450.

biological target: T5, human monocyte chemo-attractant …; assay: cell-based or functional assay

Going from B1 to B2, the “IC50 Ca++ Flux” value rises from 0.11 µg/mL to 3.5 µg/mL (32-fold).

B3 and B4 are within 1.5-fold of each other in “IC50 Ca++ Flux” value: 0.11 µg/mL for the first, 0.14 µg/mL for the second.

For B5, the “IC50 Ca++ Flux” value was 0.094 µg/mL.

Compared with B1, B2 is 2.5-fold higher in “IC50 Chemotaxis” value: 0.51 µg/mL for the first, 1.3 µg/mL for the second.

First: B3
Second: B4
The “IC50 Chemotaxis” value of the first is 1.7-fold lower: 0.35 µg/mL for the first, 0.58 µg/mL for the second.

For B5, the “IC50 Chemotaxis” value was 0.98 µg/mL.

biological target: T5, human monocyte chemo-attractant …; assay: ELISA, hybridoma supernatant on coated MCP-1

B1 and B2 are the same in “ELISA OD-MCP-1” value: 4 OD450 for the first, 4 OD450 for the second.

biological target: T5, human monocyte chemo-attractant …; assay: Biacore, mAb immobilized, MCP-1 injected; Biacore, 25 C, native MCP-1 injected over immobilized mAb
Experimental: Determination of anti-MCP-1 antibody affinity using Biacore analysis. The antibody/MCP-1 interaction analysis was performed at 25° C. using two CM5 chips docked in Biacore 3000 optical biosensors. Individual flow cells on each chip were activated with a 7-minute injection of NHS/EDC, carbohydrazide was coupled through the NHS ester using a 7-minute injection, and the residual activated groups were blocked with a 7-minute injection of ethanolamine. The monosaccharide residues of each antibody were oxidized using 1 mM sodium metaperiodate in 100 mM sodium acetate, pH 5.5 at 4° C. for 30 minutes. The oxidized antibody was desalted into 100 mM sodium acetate, pH 5.0, to couple the antibody to the carbohydrazide-modified surface. The mAb surfaces were stabilized by reducing the hydrazone bond with 0.1 M sodium cyanoborohydride. The antigen/antibody interaction was tested by injecting 0, 0.049, 0.15, 0.4, 1.3, 4 and 12 nM of MCP-1 (Peprotech, N.J.) in running buffer (10 mM HEPES, 150 mM NaCl, 0.005% surfactant, 200 μg/ml BSA, pH 7.4). The surfaces were regenerated with a 12-second pulse of 15 mM H₃PO₄. The antigen/antibody interaction was tested by injecting duplicate antigen samples diluted in running buffer (10 mM HEPES, […], 0.005% surfactant, 200 μg/mL BSA, pH 7.4), in a 300-fold concentration range. The surfaces were regenerated with a 12-second pulse of 15 mM H₃PO₄. To determine the kinetics of each interaction, the data sets were fit globally to a 1:1 interaction model that included a parameter for mass transport.

Going from B3 to B4, the Kd rises from 4.9 pM to 96 pM (20-fold). The first binds more tightly here.

B5 gave a Kd of 4.8 pM.

biological target: T5, human monocyte chemo-attractant …; assay: ELISA, coated antigen; ELISA, purified clone 1:50 on coated hMCP-1 (2 ug/mL), cross-reactivity panel
Experimental: Determining cross-reactivity of anti-MCP-1 antibodies with other chemokines. ELISA plates (Fisher Cat. No. 12-565-136) were coated with 50 μl/well of MCP-1, MCP-2, MCP-3, MCP-4, RANTES, GRO-alpha, MIP-1 alpha, eotaxin, rat MCP-1 and mouse JE (2 μg/ml) in coating buffer (0.1 M carbonate buffer, pH 9.6, NaHCO₃ 8.4 g/L, then incubated at 4° C. overnight. After incubation, the plates were washed with washing buffer (0.05% Tween 20 in PBS) three times. 200 μL/well blocking buffer (0.5% BSA, 0.1% Tween 20, 0.01% Thimerosal in 1×PBS) were added and the plates incubated at room temperature for 1 hour. After incubation, the plates were washed with washing buffer three times. 50 μL/well of hybridoma supernatants, and positive and negative controls (positive control was anti-MCP-1 antibody purchased from R&D Sciences, and negative control was an antibody to Keyhole Limpet Hemocyanin produced at Abgenix) were added and the plates incubated at room temperature for 2 hours. After incubation, the plates were washed three times with washing buffer. […] After incubation, the plates were washed three times with washing buffer and 100 μL/well of TMB (BioFX Lab. Cat. #TMSK-0 100-01) was added and the plates allowed to develop for about 10 minutes.

Going from B3 to B5, the “ELISA OD” value rises from 1.17 OD450 to 1.28 OD450.

biological target: T5, human monocyte chemo-attractant …; assay: ELISA, hybridoma supernatant on coated MCP-1; ELISA, hybridoma supernatant on plate-coated non-reduced MCP-1 (2 ug/mL)
Experimental: Selection of candidate antibodies for ELISA. After 14 days of culture, hybridoma supernatants were screened for MCP-1-specific monoclonal antibodies. The ELISA plates (Fisher, Cat. No. 12-565-136) were coated with 50 μl/well of MCP-1 (2 μg/mL) in Coating Buffer (0.1 M Carbonate Buffer, pH 9.6, NaHCO₃8.4 g/L), then incubated at 4° C. overnight. After incubation, the plates were washed with Washing Buffer (0.05% Tween 20 in PBS) three times. 200 μl/well Blocking Buffer (0.5% BSA, 0.1% Tween 20, 0.01% Thimerosal in 1× PBS) were added and the plates incubated at room temperature for 1 hour. After incubation, the plates were washed with Washing Buffer three times. 50 μL/well of hybridoma supernatants, and positive and negative controls were added and the plates incubated at room temperature for 2 hours.
The positive control used throughout was XMG2 MCP-1 Group 1, footpad N160-7 and the negative control was XMG2 KLH Group 1, footpad L627-6. After incubation, the plates were washed three times with Washing Buffer. […] In the secondary screen, three sets of samples (positives in first screening) were screened, one set for hIgG detection, one set for hKappa detection, and one set for hlambda detection. After incubation, the plates were washed three times with Washing Buffer. 100 μL/well of TMB (BioFX Lab. Cat. #TMSK-0100-01) were added and the plates allowed to develop for about 10 minutes (until negative control wells barely started to show color), then 50 μL/well stop solution (TMB Stop Solution (BioFX Lab. Cat. #STPR-0100-01) were added and the plates read on an ELISA plate reader at wavelength 450 nm. The OD readings from the positive wells are presented in Table 9.

Going from B3 to B4, the “ELISA OD-MCP-1” value rises from 3.52 OD450 to 3.88 OD450.

For B5, the “ELISA OD-MCP-1” value was 4 OD450.
